{"source": "patent US20150337049A1", "about": "(Genmab, published 2015)", "binders": {"B1": {"name": "IgG1-HER2 (IgG1-HER2-169-K409R), wild-type Fc (antibody)", "heavy": "not shown", "VL": "EIVLTQSPATLSLSPGERATLSCRASQSVSSYLAWYQQKPGQAPRLLIYDASNRATGIPARFSGSGSGTDFTLTISSLEPEDFAVYYCQQRSNWPRTFGQGTKVEIK"}, "B2": {"name": "bsIgG1-CD3×HER2 (IgG1-huCLB-T3/4×HER2-169), wild-type Fc (bispecific antibody)", "heavy 1": "not shown", "VL 1": "EIVLTQSPATLSLSPGERATLSCSASSSVTYVHWYQQKPGQAPRLLIYDTSKLASGIPARFSGSGSGTDFTLTISSLEPEDFAVYYCFQGSGYPLTFGSGTKLEMR", "heavy 2": "not shown", "VL 2": "B1 VL", "notes": "also called bispecific IgG1-CD3×HER2; (bs)IgG-CD3×HER2"}, "B3": {"name": "IgG1-HER2-DA (IgG1-HER2-169-K409R with D265A) (antibody)", "heavy": "not shown", "VL": "B1 VL", "notes": "IgG1, K409R"}, "B4": {"name": "IgG1-HER2-N297Q (IgG1-HER2-169-K409R with N297Q) (antibody)", "heavy": "not shown", "VL": "B1 VL", "notes": "IgG1, K409R; also called NQ"}, "B5": {"name": "IgG1-HER2-LALA (IgG1-HER2-169-K409R with L234A/L235A) (antibody)", "heavy": "QVQLVQSGAEVKKPGASVKVSCKASGYTFTNYGISWVRQAPGQGLEWMGWLSAYSGNTIYAQKLQGRVTMTTDTSTTTAYMELRSLRSDDTAVYYCARDRIVVRPDYFDYWGQGTLVTVSSASTKGPSVFPLAPSSKSTSGGTAALGCLVKDYFPEPVTVSWNSGALTSGVHTFPAVLQSSGLYSLSSVVTVPSSSLGTQTYICNVNHKPSNTKVDKRVEPKSCDKTHTCPPCPAPEAAGGPSVFLFPPKPKDTLMISRTPEVTCVVVDVSHEDPEVKFNWYVDGVEVHNAKTKPREEQYNSTYRVVSVLTVLHQDWLNGKEYKCKVSNKALPAPIEKTISKAKGQPREPQVYTLPPSREEMTKNQVSLTCLVKGFYPSDIAVEWESNGQPENNYKTTPPVLDSDGSFFLYSRLTVDKSRWQQGNVFSCSVMHEALHNHYTQKSLSLSPGK", "VL": "B1 VL", "notes": "IgG1, K409R"}, "B6": {"name": "IgG1-HER2-LFLEPS (IgG1-HER2-169-K409R with L234F/L235E/P331S) (antibody)", "heavy": "B5 heavy with A238F, A239E, P335S", "VL": "B1 VL", "notes": "IgG1, K409R"}, "B7": {"name": "IgG1-HER2-LFLEDA (IgG1-HER2-169-K409R with L234F/L235E/D265A) (antibody, name in EU numbering)", "heavy": "B5 heavy with A238F, A239E, D269A", "VL": "B1 VL", "notes": "IgG1, K409R"}, "B8": {"name": "IgG1-HER2-LFLENQ (IgG1-HER2-169-K409R with L234F/L235E/N297Q) (antibody)", "heavy": "B5 heavy with A238F, A239E, N301Q", "VL": "B1 VL", "notes": "IgG1, K409R"}, "B9": {"name": "IgG1-HER2-LFLE (IgG1-HER2-169-K409R with L234F/L235E) (antibody)", "heavy": "B5 heavy with A238F, A239E", "VL": "B1 VL", "notes": "IgG1, K409R"}, "B10": {"name": "IgG1-HER2-DANQ (IgG1-HER2-169-K409R with D265A/N297Q) (antibody)", "heavy": "B5 heavy with A238L, A239L, D269A, N301Q", "VL": "B1 VL", "notes": "IgG1, K409R"}, "B11": {"name": "IgG1-HER2-DAPS (IgG1-HER2-169-K409R with D265A/P331S) (antibody)", "heavy": "B5 heavy with A238L, A239L, D269A, P335S", "VL": "B1 VL", "notes": "IgG1, K409R"}, "B12": {"name": "IgG1-HER2-… (IgG1-HER2-169-K409R with L234F/L235E/D265A/N297Q/P331S) (antibody)", "heavy": "B5 heavy with A238F, A239E, D269A, N301Q, P335S", "VL": "B1 VL", "notes": "IgG1, K409R"}, "B13": {"name": "bsIgG1-CD3×HER2-DA (IgG1-huCLB-T3/4×HER2-169 with D265A) (bispecific antibody)", "heavy 1": "not shown", "VL 1": "B2 VL 1", "heavy 2": "not shown", "VL 2": "B1 VL"}, "B14": {"name": "IgG1-CD3 (IgG1-huCLB-T3/4-F405L), wild-type Fc (antibody)", "heavy": "not shown", "VL": "B2 VL 1", "notes": "also called wild-type IgG1-CD3; IgG1-huCLB-3/4"}, "B15": {"name": "IgG1-CD3-LALA (IgG1-huCLB-T3/4-F405L with L234A/L235A) (antibody)", "heavy": "EVQLVESGGGLVKPGGSLRLSCAASGFTFSSYGMFWVRQAPGKGLEWVATISRYSRYIYYPDSVKGRFTISRDNAKNSLYLQMNSLRAEDTAVYYCARRPLYGSSPDYWGQGTLVTVSSASTKGPSVFPLAPSSKSTSGGTAALGCLVKDYFPEPVTVSWNSGALTSGVHTFPAVLQSSGLYSLSSVVTVPSSSLGTQTYICNVNHKPSNTKVDKRVEPKSCDKTHTCPPCPAPEAAGGPSVFLFPPKPKDTLMISRTPEVTCVVVDVSHEDPEVKFNWYVDGVEVHNAKTKPREEQYNSTYRVVSVLTVLHQDWLNGKEYKCKVSNKALPAPIEKTISKAKGQPREPQVYTLPPSREEMTKNQVSLTCLVKGFYPSDIAVEWESNGQPENNYKTTPPVLDSDGSFLLYSKLTVDKSRWQQGNVFSCSVMHEALHNHYTQKSLSLSPGK", "VL": "B2 VL 1", "notes": "IgG1, F405L"}, "B16": {"name": "IgG1-CD3-N297Q (IgG1-huCLB-T3/4-F405L with N297Q) (antibody)", "heavy": "not shown", "VL": "B2 VL 1", "notes": "IgG1, F405L; also called NQ"}, "B17": {"name": "IgG1-CD3-LFLEPS (IgG1-huCLB-T3/4-F405L with L234F/L235E/P331S) (antibody)", "heavy": "B15 heavy with A236F, A237E, P333S", "VL": "B2 VL 1", "notes": "IgG1, F405L"}, "B18": {"name": "IgG1-CD3-LFLE (IgG1-huCLB-T3/4-F405L with L234F/L235E) (antibody)", "heavy": "B15 heavy with A236F, A237E", "VL": "B2 VL 1", "notes": "IgG1, F405L"}, "B19": {"name": "IgG1-CD3-LFLEDA (IgG1-huCLB-T3/4-F405L with L234F/L235E/D265A) (antibody, name in EU numbering)", "heavy": "B15 heavy with A236F, A237E, D267A", "VL": "B2 VL 1", "notes": "IgG1, F405L"}, "B20": {"name": "IgG1-CD3-DANQ (IgG1-huCLB-T3/4-F405L with D265A/N297Q) (antibody)", "heavy": "B15 heavy with A236L, A237L, D267A, N299Q", "VL": "B2 VL 1", "notes": "IgG1, F405L"}, "B21": {"name": "IgG1-CD3-DA (IgG1-huCLB-T3/4-F405L with D265A) (antibody)", "heavy": "not shown", "VL": "B2 VL 1", "notes": "IgG1, F405L"}, "B22": {"name": "IgG1-CD3-LFLENQ (IgG1-huCLB-T3/4-F405L with L234F/L235E/N297Q) (antibody)", "heavy": "B15 heavy with A236F, A237E, N299Q", "VL": "B2 VL 1", "notes": "IgG1, F405L"}, "B23": {"name": "IgG1-CD3-… (IgG1-huCLB-T3/4-F405L with L234F/L235E/D265A/N297Q/P331S) (antibody)", "heavy": "B15 heavy with A236F, A237E, D267A, N299Q, P333S", "VL": "B2 VL 1", "notes": "IgG1, F405L"}, "B24": {"name": "IgG1-CD3-DAPS (IgG1-huCLB-T3/4-F405L with D265A/P331S) (antibody)", "heavy": "B15 heavy with A236L, A237L, D267A, P333S", "VL": "B2 VL 1", "notes": "IgG1, F405L"}}, "note": "Numbering of substitutions follows the chain as printed. Numbers in names are those of the source."}
{"biological_target": "T1, HER2 on HER2-positive AU565 cells (human, UniProt P04626 23-1255)", "T1 construct": "whole, on cells", "assay": "FACS, AU565 cells", "method": "Cells (1×10^5 cells/well) were incubated in polystyrene 96-well round-bottom plates (Greiner bio-one 650101) with serial dilutions of antibody preparations (range 2 to 10000 ng/mL in 4-fold dilutions for Jurkat cells and range 1 to 3000 ng/mL in 4-fold dilutions for on AU565 cells) in 100 μL PBS/0.1% BSA/0.02% azide at 4° C. for 30 min.\nAfter washing twice in PBS/0.1% BSA/0.02% azide, cells were incubated in 100 μL with secondary antibody at 4° C. for 30 min. As a secondary antibody, R-Phycoerythrin (PE)-conjugated goat-anti-human IgG F(ab′)₂ (109-116-098, Jackson ImmunoResearch Laboratories, Inc., West Grove, Pa.) diluted 1/100 in PBS/0.1% BSA/0.02% azide, was used for all experiments. Next, cells were washed twice in PBS/0.1% BSA/0.02% azide, resuspended in 150 μL PBS/0.1% BSA/0.02% azide and analyzed on a FACS CantoII (BD Biosciences). Binding curves were analyzed using non-linear regression (sigmoidal dose-response with variable slope) using GraphPad Prism V5.04 software (GraphPad Software, San Diego, Calif., USA)."}
{"binder": "B1", "binding result": "binds"}
{"binder": "B2", "binding result": "binds"}
{"binder": "B3", "binding result": "binds"}
{"binder": "B4", "binding result": "binds"}
{"binder": "B5", "binding result": "binds"}
{"binder": "B6", "binding result": "binds"}
{"binder": "B7", "binding result": "binds"}
{"binder": "B8", "binding result": "binds"}
{"binder": "B9", "binding result": "binds"}
{"binder": "B10", "binding result": "binds"}
{"binder": "B11", "binding result": "binds"}
{"binder": "B12", "binding result": "binds"}
{"binder": "B13", "binding result": "binds"}
{"biological_target": "T2, C1q (from 3% pooled human serum) (human, UniProt P02745 23-245; P02746 28-253; P02747 29-245)", "T2 construct": "Native C1q of pooled human serum, detected with rabbit anti-human C1q", "assay": "ELISA, antibody coated, 3% pooled human serum, anti-C1q detection", "method": "Plates were washed and blocked with PBS supplemented with 0.025% Tween 20 and 0.1% gelatine. […] Detection was performed by addition of 1 mg/mL 2,2′-azino-bis(3-ethylbenzothiazoline-6-sulfonic acid) (ABTS; Roche, Mannheim, Germany) for about 30 min. The reaction was stopped by the addition of 100 μL 2% oxalic acid. Absorbance was measured at 405 nm in a microplate reader (Biotek, Winooski, Vt.). Log transformed data were analyzed by fitting sigmoidal dose-response curves with variable slope using GraphPad Prism software."}
{"binder": "B14", "binding result": "binds"}
{"binder": "B15", "binding result": "no binding (tested: coated at 7-30000 ng/mL)"}
{"binder": "B16", "binding result": "no binding (tested: coated at 7-30000 ng/mL)"}
{"binder": "B17", "binding result": "no binding (tested: coated at 7-30000 ng/mL)"}
{"binder": "B18", "binding result": "no binding (tested: coated at 7-30000 ng/mL)"}
{"binder": "B19", "binding result": "no binding (tested: coated at 7-30000 ng/mL)"}
{"binder": "B20", "binding result": "no binding (tested: coated at 7-30000 ng/mL)"}
{"binder": "B21", "binding result": "no binding (tested: coated at 7-30000 ng/mL)"}
{"binder": "B22", "binding result": "no binding (tested: coated at 7-30000 ng/mL)"}
{"binder": "B23", "binding result": "no binding (tested: coated at 7-30000 ng/mL)"}
{"binder": "B24", "binding result": "no binding (tested: coated at 7-30000 ng/mL)"}
{"binder": "B2", "binding result": "binds"}
{"binder": "B13", "binding result": "no binding (tested: coated at 7-30000 ng/mL)"}
